Experiment: soluble on expression in E. coli; label from the status in PepcDB or PDB records
For “MQNMFDGVQLFVEVVEAGGFAKAGKRLSLTRSTIGKAIARLEMRLGVQLFQRTTRVQSLTEDGQQYYERCLRAIKELRAGEAMLEQGRREVAGRLHVSLPVLFGRQCVAPILRTYAREHPQLELELNFSDHHVDLIADGFDLAVRNGPLGNGTTLRARRLGNQRKILCASPTYLAARGKPHTLADLADHDLLTYCRNDRNMAWTLPDATGALVDIPITSRLRCNDLEVIADTAVDGMGVAWLPYWLLMERMQRGELIGIWGDRPSAVIECHVVWPAAQHVPLRSRLAINLLAAELPKYLEA”, the “soluble on expression in E. coli” value was “not soluble”. For “MQNNNEFKIGNRSVGYNHEPLIICEIGINHEGSLKTAFEMVDAAYNAGAEVVKHQTHIVEDEMSDEAKQVIPGNADVSIYEIMERCALNEEDEIKLKEYVESKGMIFISTLFSRAAALRLQRMDIPAYKIGSGECNNYPLIKLVASFGKPIILSTGMNSIESIKKSVEIIREAGVPYALLHCTNIYPTPYEDVRLGGMNDLSEAFPDAIIGLSDHTLDNYACLGAVALGGSILERHFTDRMDRPGPDIVCSMNPDTFKELKQGAHALKLARGGKKDTIIAGEKPTKDFAFASVVADKDIKKGELLSGDNLWVKRPGNGDFSVNEYETLFGKVAACNIRKGAQIKKTDIE”, the “soluble on expression in E. coli” value was “soluble”. For “MQPLFTQERRIFHKKLLDGNILATNNRGVVSNADGSNTRSFNIAKGIADLLHSETVSERLPGQTSGNAFEAICSEFVQSAFEKLQHIRPGDWNVKQVGSRNRLEIARYQQYAHLTALAKAAEENPELAAALGSDYTITPDIIVTRNLIADAEINRNEFLVDENIATYASLRAGNGNMPLLHASISCKWTIRSDRAQNARSEGLNLVRNRKGRLPHIVVVTAEPTPSRISSIALGTGEIDCVYHFALYELEQILQSLNYEDALDLFYIMVNGKRLKDISDLPLDLAV”, the “soluble on expression in E. coli” value was “soluble”. With “MQPVTKNGESMNKTALLLTVVGAVLLTGCARQENEYTVKEYTSMANPASVYCVEQGGQLEMVTENEQRVTYCVTKDGEKIEQWEYFRQNHDQQ” the “soluble on expression in E. coli” value was “not soluble”. In the case of “MQQNTSLYDSLNVTAAASTSEIKKAYRNAALKYHPDKNNHTEESKRKFQEICQAYEILKDNRLRALYDQYGTTDEVLIQEQQAQAQRQQAGPFSSSSNFDTEAMSFPDLSPGDLFAQFFNSSATPSSNGSKSSFNFSFNNSSTPSFSFVNGSGVNNLYSSSAKYNSNDEDHHLDRGPDIKHNLKCTLKELYMGKTAKLGLNRTRICSVCDGHGGLKKCTCKTCKGQGIQTQTRRMGPLVQSWSQTCADCGGAGVFVKNKDICQQCQGLGFIKERKILQVTVQPGSCHNQLIVLTGEGDEVISTKGGGHEKVIPGDVVITILRLKDPNFQVINYSNLICKKCKIDFMTSLCGGVVYIEGHPSGKLIKLDIIPGEILKPGCFKTVEDMGMPKFINGVRSGFGHLYVKFDVTYPERLEPENAKKIQNILANDKYIKAERSTMETADSDCYCDLEKSYDSVEEHVLSSFEAPNLNNEVIEDDDLGDLINERDSRKRNNRRFDESNINNNNETKRNKYSSPVSGFYDHDINGY”, the “soluble on expression in E. coli” value is reported as “not soluble”. For “MQREDILGEALKLLETQGIADTTLEMVAERVNRPLDTLQRFWPDKEAILYDALRYLSQQVDIWRRQLLLDETLSAEQKLLARYSALSECVSNNRYPGCLFIAACTFYPDPTHPIHQLANQQKRAAHDFTHELLTTLEIDDPAMVARQMELVLEGCLSRMLVNRSQADVDTAQRLAEDILRFAQCRQGGALT”, the “soluble on expression in E. coli” value was “soluble”. For “MQRLSGLDASFLYLETSTQLLHVCGVIVLDVSTVPGGYTFAQLKAELGARTEAIPSFRRKLQDSKFNLDHPVWVEDTDFDIDRHCHRVALPAPGGRDELAELCGDIAGIPLDRARPLWEMWVIEGLEDGSVAVMSKMHHAGVDGITGANMMAQLCGLEPDAPRPGPDDSAESAGQASTLDIAVGGLLAVASRPAKLLRIVPQSLTLLPRWIGRARRGAAMPAPFTAPRTSLNGTLTSHRNLAFTQLDLEKVKTVKDAFDVKVNDVVLALCSGALRKYLQDRRELPDKSLVAIVPVSVHGKSDRPGTNQVSGMFTQLGTQIEDPAERLLAIGEHNSTSKEHNETLGASLLQDWSQFAGQAVFGTAMRLYSTLGLAERHPVVHNLVISNVPGPSVPLYFLGALIKAMYPLGPIFHGAGLNVTVMSLNGQLDVGLMSCPELAPHLWDLVDAFPAALDELVEAAGNRS”, the “soluble on expression in E. coli” value was “not soluble”. In the case of “MQSIGQVLTKASERLEERLAAVLAQYTPAYFRERIPELNELDATDEMIQKAIIQLMDRAKQIEECRGCTGFANCRRPPGQEGMVMHLTVENGHISSLHSMCDQFHAYHQEQRWQRLLALSGKAANDKNFTFDNFPDAQKKRHRKLCGYIYQFAQQFEPGGSDKGVYIYGPPGTGKTHLLLAMVNRLEERRVPVIFIRTDAIFRRMRGMLSAKESLDSLIEAYCTTPVLVIDEFAQEAGTEFTIDVMFEVVNARFANSLPTFATSNYAPDQVYEKAMRKHRLEEKVEAIRSRLNQMMKHAFMDGEDGRKKDRETF”, the “soluble on expression in E. coli” value is reported as “not soluble”. In the case of “MQSISNCPIGLVSKNTINSASTIAEWVACPWKYINVVGSGRYVSNKPDKITRYDLLKAAQEAEMQELLTRNDMKGRHKRNKKSKIALETIAEENSSTESLF”, the “soluble on expression in E. coli” value is reported as “not soluble”. In the case of “MQTEGAQEMVLQDAVAGIYKKLVVDASGTQLLGAILVGDNSDYDALLHCYLNKTVLPDHAANLLFDTGMLDGEMPDSAIICSCHNVTKGDLVAEIQAGTTNLTDLKANTKAGTGCGGCSNMVKSVLDTQLAAMGVEVNNHLCEHFELSRQEMFHICQVEQIKDFDTLIALHGKGHGCDICKPTAASVFASLWNEHIMEPQHQSLQDSNDAFMANLQKDGSYSIVPRVPGGEITPDKLIVLGEVAQQYDLYTKITGGQRVDLFGAQLEQLPEIWQTLIDAGFETGHAYGKSVRTVKSCVGSTWCRYGVDDSVGLAIELENRYKGLRAPHKLKFAVSGCTRECAEAQSKDIGVIATENGWNLYVCGNGGMRPRHADLFASDLSKSELITMIDRVLMFYVSTADRLQRTSVWMENMEGGLDYLKQVILDDSLNLCDSLDEQMARVVDTYQCEWKSTLDNPQKLQRFRPFLNSTSGSKVLPYQRVRGQRIPVKQEV”, the “soluble on expression in E. coli” value is reported as “not soluble”. In the case of “MQTQKPVFSEVTVHDPSIIKANGTYYVFGSHLASAKSTDLMNWTQISSSVHDGNPLIPNVYEELKETFEWAESDTLWAPDVTQLEDGKFYMYYNACRGDSPRSALGLAVADDIEGPYKNKGIFLKSGMDGISNDGTPYDATKHPNVVDPHTFFDQNGKLWMVYGSYSGGIFILEMDKKTGFPLPGQGYGKKLIGGNHSRIEGAYILYHPETQYYYLYMSFGGLAADGGYNIRVARSKNPDGPYYDAEGHAMIDVRGKEGTLFDDRSIEPYGVKLMGNFSFNNKNGYVSPGHNSAFYDEKSGKSYLIFHTRFPGRGEEHEVRVHQLLMNKQGWPVVAPHRYAGEKLEKVKKSDVIGDYELVRHGKDISADIKESKEIRLNQNGKITGAVAGTWKNTGHNKIELKIDGKTYDGVFLRQWDAASERKVMTFSALSREGDAVWGSSLKRAEFLEHHHHHH”, the “soluble on expression in E. coli” value is reported as “soluble”. With “MQVCRQWVTLSLYNNGKWPKMKYQQLENLECGWKWQYLINKWKDGEPVTRYIDKSEIEAAVQKLRAIEHEPTHVLSWIEEHMSSELDNKLKQAIRAKRKRHFNAEQIHTRKKSIDLDYRVWEKLSLKANELGCTLSDAIEYLLSEASRSEKASKTVNSLKEDLSRLLAE” the “soluble on expression in E. coli” value was “not soluble”. In the case of “MQVIHQYSNKGGKYQNRYDVSILVNGLPLVHVELKKRGVAIREAFNQIKRYKRDSFSAEDGLFDFVQIFVISNGTSSKYYSNTTRIAQLEKNHKADTFEFTNYWADSKNHNIEDLMDFAKAFFAKRSLLNVLTCYCVFTSEEVLLVMRPYQIVAAERILEKIKTAQNSKTKNQSKGYIWHTTGSGKTLTSFKSATLAKELESVSKVLFVVDRKDLDYQTMKEYDKFQKDCANSNTSTKILKEQLEDSNAKIIITTIQKLDKFVKSHKGHAIFNEEVVMIFDECHRSQLGSMHQAITKAFKKYHLFGFTGTPIFAANCDKNNPLGTTEQKFGKCLHQYTIIDAIRDKNVLPFRVEYHNTIKAKEDIKDNKVRAVDEKNALLDTRRIKEITKCILERFNQATKNKKFNSILACSSIEALKKYYQAFKEEKHDLKIAAIFSYSANEEIDTLEDENNESACRLDKSSRDFLEGAIADYNGMFGVSFDTSDQKFQSYYKDLSQKMKERKIDLLMVVNMFLTGFDATRLNTLWVDKNLKYHGLIQAFSRANRILDSVKTHGNIVCFRDLEQDLNDALMLFGNKDAQSIALLRKYEDYLKGYTDNNKEYEGYEGLIKRLLTEFPLKEPIVSESQKKDFIKLFGKILKLENILNSFENFKKDDYINPRDFQDYQSKYLDFYDAMRSEKGKDKEEINDDLIFEIELIKQVEVNIDYILNLIEEFAKEHGVEIQGVKTKIEPIINSSIELRNKKDLIMDFIDKYNKDQEVHAHFQDYIHQKREEEFQNIIEENRLNEEKAYSFMQHAFKGGEISFSGTEFPKIIEEKPSMFGKNSRYQEVKEKVAASLSRFFHRFCDLTSAIFKKNEVKKDEVNEK”, the “soluble on expression in E. coli” value is reported as “not soluble”. For “MQYHYQWLTPFDAKRTTVVCLHGFTGTLATFAAVFPSQTPYNVLGIDLPGHGATASLVAPERYTMKQVCHDIAELTESLNLPCFCLLGYSMGARTALGFALHYPQKVQHLLLESGSPGLATAAERQARICQDHRLAERLLEEPLVDFIDFWQELPLFQTQKALSVAQQMAIRQERLSQSAFGLVSSLWYMGTGAQESYWERLAELQPIPTDLLVGGEDQKFIGIAKKMQARQPLLRLTIFPEAGHCIHLEQPTIFYEKVTALLEGAI”, the “soluble on expression in E. coli” value was “not soluble”. With “MQYSMGIDAGGTYTDSIIIRDSDGKVMDSNKALTTYPDLLAGIKNSIDGLDEQYLKDVKMVSVSTTLATNTILEKNGYPVGLILVGDYEVPERMQAEYYTVVKGGHDHHGAELTSLDMEAVEAFVNKVKDRVSAFAVSSYFSIRNPAHELAIKARLKELGFSVVCGHELSLDLGAYERGITAYLNAQLIPIASQFILSIREEIRRRGMDARLLMLKCDGSVVGINEALEKPIESIFSGPAASLVGASHLSGLETCAVIDVGGTSTDVSMLENGLPELCSEGAVVGGWQTKVKAIRMETSAMGGDSHVWVKNMKINIGPRRVIPLCVAAVKYPGFLEILKKGRIPGTMHLEENIQPTKFFIRTGLEASNLGSYEKELFDRIGDTPASLNDIFWETQKTLSPGLLDSLLRKRLIQAIGFTPTDALHVLGEYRGWNTEASIAGAKLLERYTHKDYIESARALEHHHHHH” the “soluble on expression in E. coli” value was “not soluble”. With “MRAAFRTLGCKVNQVETEALLGFLKALEPEVVPLEAGGADLVVINSCAVTTTAEADTRKEVRRARRYNPHAFIVVTGCYAELAPEVLKELGADAVVPNARKAELPRVILERFGLPSDPITTPPNEFWGAGERGLLNSRVRAFLKVQDGCQAGCAYCIIPRLRGKERHRDHREALAEAEALLRMGIKEIVLTGVRLGSYKGHPRGLAGLVEDLYHLGAKVRLSSIEPEDTGEDLLKVIGRYAPEVRPHLHLSLQTGSDRLLKLMGRRYDKAYYRELVQRAYDLIPGFALTTDVIAGLPTETEEEHRETLAFLEELRPTRVHAFTYTPRPKTRAASMPQVPPEVRKRRTKELIALAQRLAEERIRPRLGERVEVLVERVQGGEALGHTPDYYEARLEGEARPGETVWARVHGVEGYVLLGRVEGVKEGARGPLELPVR” the “soluble on expression in E. coli” value was “soluble”. In the case of “MRAEVKEICKALHLAYIADRFEEVRFETKEQFLRDVLALELSCCQEAKQARLIKKAKFRELKWLKDYEWSGHIHWPATTSREELCDLRFLERKQNVLLLGSPGTGKTHLATALGIQACQQGHEVRFFRVADLVAQLEEALKNGTLGRLKRSLDTCELLILDELGYVPFQKQGSELLFHIIADCYERKSVMVTSNLEFGQWNRVFGDNRLTAALVDRLVHHAHILAFTGESYRLRNALSAIQPSSASGLEP”, the “soluble on expression in E. coli” value is reported as “not soluble”. With “MRASPTSPPEQVVVDASAMVDLLARTSDRCSAVRARLARTAMHAPAHFDAEVLSALGRMQRAGALTVAYVDAALEELRQVPVTRHGLSSLLAGAWSRRDTLRLTDALYVELAETAGLVLLTTDERLARAWPSAHAIG” the “soluble on expression in E. coli” value was “soluble”.
